The nature of this series: protein stability index of a GFP-peptide fusion (GPS, HEK-293T) (PSI 1-6); higher = more stable.
[1] abbreviates: treatment: DMSO, c terminus: a fixed tail appended.
The mark [2] stands for this setting: treatment: MLN4924 1 uM, 8 h, c terminus: a fixed tail appended.

± gives the standard deviation.

For 29 sequences, protein stability index results are on record in the supplement of paper PMC10567573.
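Further: 24-mer peptide tiles fused after GFP, lentivirally expressed, FACS-sorted into six equal bins by GFP/DsRed ratio, decoded by Illumina sequencing, PSI is the read-weighted mean bin number.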

With DVFSENLLADVKGARAALNEIESR [STX11], the protein stability index under setting [1] worked out at 4.22 ± 0.22 and the protein stability index under setting [2] turned out to be 4.37 ± 0.12.

Regarding DVTGSVKSERRNLLEDDSDEEEDF [VAMP4], the protein stability index reads like this: under setting [1], 5.57 ± 0.14; under setting [2], 5.66 ± 0.25.

Take DYRGPDCRYLNFTKGEEISVYVKL [MIA2]: the protein stability index was 2.45 ± 0.53 under setting [1] and 2.81 ± 0.95 under setting [2].

Turning to EAFALPDSLLVVLDMDEGTLSFIV [SPSB4], the protein stability index amounted to 2.42 ± 0.21 under setting [1] and 2.53 ± 0.31 under setting [2].

Take EARSYLSEEMIAEFKAAFDMFDAD [TNNC2]: the protein stability index is 4.16 ± 0.46 under setting [1] and 4.15 ± 0.23 under setting [2].

Regarding ECIYIIEAAPRQCIELYFDEKYSI [NETO1], the protein stability index is, setting by setting: under setting [1], 3.08 ± 0.46; under setting [2], 2.95 ± 0.32.

Take ECPTCGHSYNVTQRRPRVLSCLHS [RNF208]: the protein stability index runs as follows: under setting [1], 3.22 ± 0.17; under setting [2], 3.45 ± 0.49.

EDQHKLYQQIKAGAYDFPSPEWDT [CAMK2B]: the protein stability index under setting [1] is 4.79 ± 0.17 and the protein stability index under setting [2] was found to be 4.75 ± 0.12.

EEAEAGEEAVPEEEGPTVVLNPHP [CHGA] gave a protein stability index under setting [1] of 5.59 ± 0.14 and a protein stability index under setting [2] of 5.44 ± 0.28.

EEAPELDEAELDYLMDVLVGTQAL [SERTAD1] showed a protein stability index under setting [1] of 4.05 ± 0.25 and a protein stability index under setting [2] of 4.22 ± 0.16.

Consider EEGDEDDWASNKVMFKIGDLGHVT [WEE1], for which the protein stability index is, setting by setting: under setting [1], 4.1 ± 0.23; under setting [2], 4.39 ± 0.2.

Turning to EEKKLRRSQHARKETEFLRLKRTR [STK38L], the protein stability index is, setting by setting: under setting [1], 3.01 ± 0.16; under setting [2], 3.25 ± 0.27.

Regarding EEKKPGELKRLVESRRQQILREFE [TRIM39], the protein stability index is, setting by setting: under setting [1], 4.43 ± 0.55; under setting [2], 4.59 ± 0.22.

For the sequence EEKQHLERLNKEYQEIFQQLQRSW [TRIM43], the protein stability index worked out at 3.84 ± 0.23 under setting [1] and 3.77 ± 0.42 under setting [2].

With EELEAKRLQCPFEQELLRRQQRLN [FAM107A], the protein stability index turned out to be 4.59 ± 0.15 under setting [1] and 4.63 ± 0.21 under setting [2].

With EERVETTVTSLKTKVGGTNPNGGS [TPD52L1], the protein stability index came out at 5.11 ± 0.28 under setting [1] and 5.19 ± 0.21 under setting [2].

As for EFFSANAISDQLLGAGSDLKDFTL [ADAMTSL2], the protein stability index by setting is: under setting [1], 2.97 ± 0.26; under setting [2], 3.22 ± 0.42.

For the sequence EFLPQGPVAMRVAKLAINQGMEVD [AUH], the protein stability index under setting [2] is 3.82 ± 0.18.

For EGEADHSGYAGELGFRAFSGSGNR [UFD1], the protein stability index by setting is: under setting [1], 4.63 ± 0.25; under setting [2], 4.69 ± 0.54.

The sequence EGVPSVFNPPPSRPLQVNTADHRI [FAF2] returned a protein stability index under setting [1] of 4.421 ± 0.042 and a protein stability index under setting [2] of 4.503 ± 0.037.

Take EHVLMFAKLALYPCASLLAFASTC [TMEM175]: the protein stability index runs as follows: under setting [1], 3.42 ± 0.23; under setting [2], 3.14 ± 0.5.

Consider EIDIFNPQTVGVGRARFTTYEVRM [SNX12], for which the protein stability index by setting is: under setting [1], 2.36 ± 0.069; under setting [2], 2.57 ± 0.44.

Consider EIDLDSMRNLKASLENSLREVEAR [KRT18], for which the protein stability index by setting is: under setting [1], 4.23 ± 0.28; under setting [2], 4.23 ± 0.48.

For EINSHSLFSKWFSESGKLVTKMFQ [TRIP13], the protein stability index runs as follows: under setting [1], 2.58 ± 0.21; under setting [2], 2.48 ± 0.42.

Turning to EIPLVIKYKKAVGLKLKQEKKEAY [WDR88], the protein stability index by setting is: under setting [1], 2.88 ± 0.32; under setting [2], 2.56 ± 0.13.

For EKLQKEQKELQDVGQSLRIKEQEV [SASS6], the protein stability index was 4.79 ± 0.94 under setting [1] and 5.29 ± 0.04 under setting [2].

On to EKPIGSCVTNPCGPRSRCGPCNTF [KRT33B], for which the protein stability index runs as follows: under setting [1], 2.34 ± 0.24; under setting [2], 2.52 ± 0.27.

Consider ELENLAAMDLELQKIAEKFSQRG [CHGB], for which the protein stability index came out at 2.62 ± 0.28 (treatment: DMSO, c terminus: native) and 3.33 ± 0.64 (treatment: MLN4924 1 uM, 8 h, c terminus: native).

As for ELGQAVEVIYPQHSKLTDREKTNI [DENND6A], the protein stability index is, setting by setting: under setting [1], 3.69 ± 0.35; under setting [2], 4.28 ± 0.21.
